Assay results from patent US7947279B2, “Peptide having hydrolase activity” (The Trustees of Columbia University in the City of New York, priority 2005, dated 2011).
“Also recorded” adds a separate entry of the source.

Assays:
[1] = test system: mice (WT and APP/PS1); assay: Contextual and cued fear conditioning; format: in vivo, mouse; conditions: 0.02-0.04 g/kg i.p.; 1, 7, 14 and 21 days after training
Procedure: Behavioral Studies: Fear conditioning was performed in a conditioning chamber as previously described (Bourtchuladze et al., 1994; Gong et al., 2004). For contextual and cued fear conditioning mice were placed in the conditioning chamber for 2 min before the onset of a discrete tone (CS) (a 30 sec sound at 2800 Hz and 85 dB). In the last 2 sec of the CS, mice were given a foot shock (US) of 0.50 mA for 2 sec through the bars of the floor. After the CS/US pairing, the mice were left in the conditioning chamber for another 30 sec and then placed back in their home cages. Freezing behavior, defined as the absence of all movement except for that necessitated by breathing, was scored using Freezeview software. To evaluate contextual fear learning, freezing was measured for 5 min in the chamber in which the mice were trained 24 hrs after training. To evaluate cued fear conditioning, following contextual testing, the mice were placed in a novel context (triangular cage with smooth flat floor and with vanilla odorant) for 2 min (pre-CS test), after which they were exposed to the CS for 3 min (CS test), and freezing was measured. To evaluate the contextual fear over time, mice were placed for 5 min in the chamber in which the mice were trained 7- 14- 21-days after training. Sensory perception of the shock was determined through threshold assessment. Each animal was placed individually into the conditioning chamber. […] Animal behavior was evaluated for the first visible response to the shock (flinch), the first extreme motor response (run/jump), and the first vocalized distress (scream). Threshold to flinching, jumping, and screaming was quantified for each animal by averaging of the shock intensity at which each animal manifested a behavioral response of that type to the foot shock. Visual, motor, and motivation skills were also tested with visible platform training by measuring the time and the speed to reach a visible platform placed within a pool filled with water (Gong et al., 2004). Both time to reach the platform and swimming speed were recorded and analyzed with a video tracking system (HVS-2020, HVS Image, UK). No difference was observed among different groups of mice in the experiments in which fear conditioning was tested both in the presence of LDN and TAT fusion proteins. To decide the time of administration of LDN, experiments were performed in which the inhibitor was injected intra-peritoneally at different intervals (4 hrs before, 1 hr before, 1 hr after and 4 hrs after) from the electric shock. During the training phase, no difference was found in the freezing of LDN- or vehicle-injected mice.

[2] = test system: CA1-LTP in hippocampal slices; assay: CA1-LTP in hippocampal slices (theta-burst); format: cell-based, mouse; conditions: for Aβ-induced impairment of CA1-LTP (words): fusion protein 20 nM 1 hr, then plus Aβ 200 nM 20 min; for LTP in slices not treated with Aβ (words): fusion protein 20 nM, 1 hr, WT slices, 3 theta-burst trains
[3] = test system: ubiquitin-AMC; assay: Hydrolysis of ubiquitin-AMC by TAT fusion proteins; format: biochemical; conditions: 20 nM TAT fusion proteins
Procedure: Measurement of Hydrolase Activity: The hydrolase assay was performed as previously described (Nishikawa et al., 2003) with slight modifications. Briefly, hippocampal tissue was treated with tissue protein extraction reagent (T-PER; Pierce) containing freshly added EDTA-free protease inhibitors. Homogenate was centrifuged at 10,000 rpm for 5 min. Protein concentration was measured in the supernatant using the BCA protein assay reagent. In some experiments hydrolysis was initiated by adding 10 μl of 20 nM Uch-L1 or Uch-L3 (Boston Biochem). The hydrolase assay was performed using fluorogenic ubiquitin-7-amino-4-methylcoumarin (ubiquitin-AMC) (Boston Biochem) as a substrate. The substrate was diluted in assay buffer (50 mM Tris-HCL, 0.5 mM EDTA, 5 mM dithiothreitol and 0.1 mg/ml ovalbumin, pH 7.6). […] The reaction was monitored using a fluorescence spectrophotometer (CytoFluor Series 4000, ABI Inc) at 25° C. The free AMC fluorophore was excited at 380 nm and measured at 460 nm. Hydrolase activity was expressed as relative fluorescence intensity/min (Dang et al., 1998). In some experiments, hydrolysis was also measured on the soluble and insoluble fractions (FIG. 28D). In a group of experiments hydrolysis was measured by mixing ubiquitin-AMC with 20 nM TAT fusion proteins (FIG. 27C). […]

[4] = test system: phospho-CREB at Ser-133; assay: Phospho-CREB (Ser-133) Western blot in hippocampal cultures; format: cell-based, rat
Procedure: Western Blotting: Protein levels were assessed using standard procedures. Protein extraction was performed using buffer with and without detergent. For the extraction of protein using detergent, hippocampal tissues and cultured hippocampal neurons (5 DIV) were homogenized in RIPA buffer (50 mM Tris-HCl pH 7.4, 1% Triton X-100, 1% sodium deoxycholate, 0.1% SDS, 150 mM sodium chloride, 10 mM sodium fluoride, 30 mM sodium pyrophosphate, 50 mM sodium orthovanadate) containing 1× complete protease inhibitor (Roche) and 1 mM phenylmethylsulfonyl fluoride (PMSF). For extraction of proteins without detergent, hippocampal extracts were homogenized with disposable dounce homogenizers in buffer A, containing 10 mM HEPES pH 7.3, 300 mM sucrose, protease 1× complete protease inhibitor (Roche) and PMSF. After centrifugation at 10,000×g supernatant proteins were resolved on a 8% or 4-20% gradient Tris-Glycine gel, transferred onto PVDF or nitrocellulose membrane and blocked in 5% skim milk in PBS-Tween 0.1% (PBS-T). Membranes were probed with primary antibodies, and after washing with PBS-T incubated with an appropriate HRP-conjugated secondary antibody. The following antibodies were used: mouse monoclonal anti-ubiquitin (Chemicon), rabbit polyclonal anti-pCREB (Upstate Biotech.), rabbit polyclonal anti-PKA-RIIα (Santa Cruz Biotech. Inc), mouse monoclonal anti-Uch-L1 (Novocastra), monoclonal mouse anti-HA (Santa Cruz Biotech. Inc), and anti-PKA IIα. Detection was performed using HRP-conjugated secondary antibodies (Pierce, Rockford, Ill.). To control loading and transfer, protein immunoreactivities were normalized against total extracellular signal-regulated protein kinases (ERK1/2) levels with a rabbit analyzed using a rabbit polyclonal anti-ERK1/2 antibody (Cell Signaling Technology, Inc). NIH IMAGE was used to analyze the scanned blots and quantify the intensity of the protein signals.
Preparation of Cell Cultures. Hippocampal cell cultures were prepared as previously described (Vitolo et al., 2002). In cell culture experiments fetuses at embryonic day 18 from timed pregnant Sprague-Dawley rats (Taconic Farms) were used. Fetuses were sacrificed and the hippocampi removed. Neurons were then dissociated, plated on 6 well-plates coated with poly-L-lysine and maintained in a defined serum-free medium containing minimum essential medium supplemented with N-2, glucose, albumin, pyruvic acid, antibiotics and antimycotics. […] 5 DIV cells were used for the experiments.

[5] = test system: SY5Y neuroblastoma cells transfected with a degron CL1-GFP expression vector; assay: Proteasome reporter assay (GFP^u); format: cell-based, human; conditions: substance alone
Procedure: Proteasome reporter assays. In this cell line, human neuroblastoma SH-SY5Y cells were permanently transfected with reporter construct consisting of green fluorescent protein (GFP) conjugated at its C-terminus to a short degron sequence (CL-1) (Gilon et al., 1998). […] The SY5Y-GFP^u cells were grown in 1×DMEM (Invitrogen) supplemented with 15% fetal bovine serum (JRH), 1× penicillin/streptomycin (Gibco). After indicated treatments, GFP^u concentrations were assayed by densitometric analysis of immunoblots of total protein extracts (10 ug/lane) using monoclonal GFP antibodies (Santa Cruz Biotechnology) and visualized with HRP-conjugated secondary antibodies and ECL (Pierce). Loading equalization was normalized by probing blots with anti-ERK antibodies (Santa Cruz Biotechnology).

B1: TAT-HA-Uch-L1(C90S): mutant TAT-HA-Uch-L1 construct, C90S (hydrolase site), made by site-directed mutagenesis (protein, UniProt P09936 1-220, looked up, variant C90S)
Ubiquitin carboxyl-terminal …: MQLKPMEINPEMLNKVLSRLGVAGQWRFVDVLGLEEESLGSVPAPACALLLLFPLTAQHENFRKKQIEELKGQEVSPKVYFMKQTIGNSSGTIGLIHAVANNQDKLGFEDGSVLKQFLSETEKMSPEDRAKCFEKNEAIQAAHDAVAQEGQCRVDDKVNFHFILFNNVDGHLYELDGRMPFPVNHGASSEDTLLKDAAKVCREFTEREQGEVRFSAVALC
modifications: fused to HIV TAT transduction peptide and HA tag
notes: mutant TAT-HA-Uch-L1 construct, C90S (hydrolase site), made by site-directed mutagenesis
- contextual learning in WT mice [1]: impaired both contextual learning and its decay; also recorded: worsened contextual conditioning performance
- Aβ-induced impairment of CA1-LTP (words) [2]: failed to protect against LTP suppression; also recorded: failed to reverse
- Aβ-induced impairment of CA1-LTP (words) ([2]; listed as TAT-HA-Uch-L1(C90S) peptide): did not protect against LTP suppression
- LTP in slices not treated with Aβ (words) [2]: severely impaired potentiation
- LTP in slices not treated with Aβ (words) ([2]; listed as Mutant (C90S) TAT-Uch-L1 fusion protein): reduces LTP
- LTP in slices not treated with Aβ (words) ([2]; listed as mutant (C90S) TAT-Uch-L1): dramatically reduced LTP
- amounts of potentiation ([2]; fusion protein alone, no Aβ): 152.38±10.90%
- decrease in potentiation compared to vehicle or TAT-HA-iUch-L1 ([2]; fusion protein alone, no Aβ): ~60%
- baseline transmission in slices without tetanic stimulation ([2]; non-tetanized slices): Neither TAT-HA-Uch-L1(C90S) nor TAT-HA-Uch-L1(S18Y) affected baseline; also recorded: did not affect basal transmission
- Uch (hydrolase) activity of TAT constructs (words) [3]: little or no activity
- Uch (hydrolase) activity of TAT constructs (words) ([3]; listed as TAT-HA-Uch-L1 (C90S)): inactive
- glutamate-induced increase in CREB phosphorylation ([4]; cultures not treated with Aβ): blocked the glutamate-induced increase in CREB phosphorylation
- effect of Aβ on glutamate-induced CREB phosphorylation (words) ([4]; fusion protein 100 nM, 3 μM Aβ 24 hrs, 50 μM glutamate 15 min): did not allow the enhancement of phospho-CREB
- GFP^u levels [5]: increase in GFP^u
